By Kd is commonly meant the concentration at which binding is half-saturated.

Like-named read-outs stand apart in the source and are kept apart here.

Here are results for 2 substances from PMC4113602.

Assay [1] addresses E-cadherin ECD (Mus musculus) (UniProt P09803). Conditions: cited from earlier work.
For assay [2] the target is unchanged. Conditions: cited from earlier work. The source holds these as a separate data set.
Assay [3] deals with W2A E-cadherin/ATH monomer (E-cadherin extracellular domains EC1-EC5, W2A, N20C). Briefly: single molecule AFM force measurement.
Assay [4] shares this target. Briefly: FRET or BRET. (In BRET a luciferase serves as donor, and the signal depends on an acceptor being close.)
The target is the same in assay [5]. Briefly: cross-linking.

Take E-cadherin ECD (from UniProt P09803): the results for the Kd in assay [1] and in assay [2] were 0.72 mM and 10 mM, respectively.
In the case of “W2A E-cadherin/ATH monomer (E-cadherin extracellular domains EC1-EC5, W2A, N20C) (domain or fragment)”, the bond strength (unbinding force) in assay [3] was 17 pN. For the same substance, the FRET efficiency (peak) in assay [4] is 0.74. Moreover, the cross-linked dimer yield in assay [5] came out at 20%.
